In US20220396635A1 (UNIVERSIT T STUTTGART, published 2022):

Assays:
CEA = molecular target: T1, CEA (UniProt P06731 35-685); test: flow cytometry, serial dilution on LIM1215 cells (CEA-expressing), PE anti-human Fc detection
T1 construct: whole, on cells
T1 sequence (looked up): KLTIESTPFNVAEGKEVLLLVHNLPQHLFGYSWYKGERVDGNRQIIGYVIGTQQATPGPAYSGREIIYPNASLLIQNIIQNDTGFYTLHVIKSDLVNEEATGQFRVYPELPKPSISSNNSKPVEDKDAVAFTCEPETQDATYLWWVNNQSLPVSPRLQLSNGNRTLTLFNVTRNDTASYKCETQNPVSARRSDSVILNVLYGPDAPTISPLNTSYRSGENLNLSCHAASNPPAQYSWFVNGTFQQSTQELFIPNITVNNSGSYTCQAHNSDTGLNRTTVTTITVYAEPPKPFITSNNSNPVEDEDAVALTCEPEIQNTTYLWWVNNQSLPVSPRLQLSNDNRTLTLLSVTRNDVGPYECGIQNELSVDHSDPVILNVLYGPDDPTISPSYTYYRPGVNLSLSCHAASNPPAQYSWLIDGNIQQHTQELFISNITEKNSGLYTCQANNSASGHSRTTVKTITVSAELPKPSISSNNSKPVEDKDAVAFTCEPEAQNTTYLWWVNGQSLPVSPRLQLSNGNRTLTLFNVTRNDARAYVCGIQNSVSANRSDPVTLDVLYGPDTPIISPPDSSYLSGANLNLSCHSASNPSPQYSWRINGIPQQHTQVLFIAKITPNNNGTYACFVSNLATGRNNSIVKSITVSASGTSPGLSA
Protocol: (§1) Binding of trivalent, bispecific fusion proteins to CEA-expressing (LIM1215) and CD3-expressing (Jurkat) cell lines was analyzed by flow cytometry. 2×10⁵ cells/well were incubated with a serial dilution of trivalent, bispecific antibodies for 1 h at 4° C. followed by detection using a PE-conjugated anti-human Fc antibody (Jackson ImmunoResearch Laboratories Inc). […] Regarding the CEA-expressing cell line LIM1215, the trivalent, bispecific antibodies bound with EC₅₀ values in the nanomolar range (FIG. 16A) (Table 9).

CD3 = molecular target: T2, CD3 (UniProt P07766 23-207); test: flow cytometry, serial dilution on Jurkat cells (CD3-expressing), PE anti-human Fc detection
T2 construct: whole, on cells; on cells it stands in the TCR/CD3 complex; also called CD3 on Jurkat cells
Protocol: as §1

EGFR [1] = molecular target: T3, EGFR (UniProt P00533 25-1210, limits assumed); test: flow cytometry, serial dilution on FaDu cells (EGFR-expressing), PE anti-human Fc detection
T3 construct: whole, on cells; the cell lines are human tumor lines
Protocol: (§2) Binding analysis of the trivalent, bispecific antibodies was performed by flow cytometry using tumor cell lines with different EGFR-expression levels (FIG. 20) (Table 12). Adherent cells were washed with PBS and shortly trypsinized at 37° C. Trypsin was quenched with FCS-containing medium and removed by centrifugation (500×g, 5 min.). Target cells (FaDu, LIM1215, SKBR-3, T-47-D, MCF-7 and Jurkat cells) at 1×10⁵ cells/well were incubated with a serial dilution of trivalent, bispecific antibodies for 1 h at 4° C. After removing excess of recombinant protein by washing with PBA (PBS, 2% FBS, and 0.02% sodium azide), bound protein was detected using PE-conjugated anti-human Fc mAb (Jackson ImmunoResearch Laboratories Inc). Fluorescence was measured using MACSquant VYB (Miltenyi Biotec) and data were analyzed using FlowJo (Tree Star). Relative median fluorescence intensities (MFI) were calculated as followed: relative MFI=((MFIₛₐₘₚₗₑ-(MFIdetection-MFIcells))/MFIcells).

EGFR [2] = molecular target: T3, EGFR; test: flow cytometry, serial dilution on SKBR-3 cells (EGFR-expressing), PE anti-human Fc detection
Protocol: as §2

EGFR [3] = molecular target: T3, EGFR; test: flow cytometry, serial dilution on LIM1215 cells (EGFR-expressing), PE anti-human Fc detection
Protocol: as §2

EGFR [4] = molecular target: T3, EGFR; test: flow cytometry, serial dilution on T-47-D cells (EGFR-expressing), PE anti-human Fc detection
Protocol: as §2

EGFR [5] = molecular target: T3, EGFR; test: flow cytometry, serial dilution on MCF-7 cells (EGFR-expressing), PE anti-human Fc detection
Protocol: as §2

B1: scDb/scFv-Fc (1-1)+2, trivalent bispecific anti-CEAxanti-CD3 (bispecific antibody)
chain 1: QVKLQQSGAELVRSGTSVKLSCTASGFNIKDSYMHWLRQGPEQGLEWIGWIDPENGDTEYAPKFQGKATFTTDTSSNTAYLQLSSLTSEDTAVYYCNEGTPTGPYYFDYWGQGTTVTVSSGGGGSDIELTQSPAIMSASPGEKVTITCSASSSVSYMHWFQQKPGTSPKLWIYSTSNLASGVPARFSGSGSGTSYSLTISRMEAEDAATYYCQQRSSYPLTFGAGTKLELKRGGGGSGGGGSGGGGSQVKLQQSGAELVRSGTSVKLSCTASGFNIKDSYMHWLRQGPEQGLEWIGWIDPENGDTEYAPKFQGKATFTTDTSSNTAYLQLSSLTSEDTAVYYCNEGTPTGPYYFDYWGQGTTVTVSSGGGGSDIELTQSPAIMSASPGEKVTITCSASSSVSYMHWFQQKPGTSPKLWIYSTSNLASGVPARFSGSGSGTSYSLTISRMEAEDAATYYCQQRSSYPLTFGAGTKLELKRAAADKTHTCPPCPAPPVAGPSVFLFPPKPKDTLMISRTPEVTCVVVDVSHEDPEVKFNWYVDGVEVHNAKTKPREEQYNSTYRVVSVLTVLHQDWLNGKEYKCKVSNKGLPSSIEKTISKAKGQPREPQVCTLPPSRDELTKNQVSLSCAVKGFYPSDIAVEWESNGQPENNYKTTPPVLDSDGSFFLVSKLTVDKSRWQQGNVFSCSVMHEALHNHYTQKSLSLSPGK
chain 2: DIQMTQSPSSLSASVGDRVTITCRASQDIRNYLNWYQQKPGKAPKLLIYYTSRLHSGVPSRFSGSGSGTDFTFTISSLQPEDIATYYCQQGNTLPWTFGQGTKLEIKRGGGGSGGGGSGGGGSQVQLVQSGAEVKKPGSSVKVSCKASGGTFSGYTMNWVRQAPGQGLEWMGLINPYKGVSTYNGKFKDRVTITADKSTSTAYMELSSLRSEDTAVYYCARSGYYGDSDWYFDVWGQGTLVTVSSAAADKTHTCPPCPAPPVAGPSVFLFPPKPKDTLMISRTPEVTCVVVDVSHEDPEVKFNWYVDGVEVHNAKTKPREEQYNSTYRVVSVLTVLHQDWLNGKEYKCKVSNKGLPSSIEKTISKAKGQPREPQVYTLPPCRDELTKNQVSLWCLVKGFYPSDIAVEWESNGQPENNYKTTPPVLDSDGSFFLYSKLTVDKSRWQQGNVFSCSVMHEALHNHYTQKSLSLSPGK
notes: also called scDbCEAxCEA-Fc(hole)Δab + scFvhuU3-Fc(knob)Δab
Q: What does the source list for B1?
A: EC50 (CEA): 2.4 nM; EC50 (CD3): 2.8 nM

B2: scDb/Fab-Fc (1-1)+2, trivalent bispecific anti-EGFRxanti-CD3 (bispecific antibody)
chain: EVQLVESGGGLVQPGGSLRLSCAASGFSLTNYGVHWVRQAPGKGLEWLGVIWSGGNTDYNTPFTSRFTISRDNSKNTLYLQMNSLRAEDTAVYYCARALTYYDYEFAYWGQGTTVTVSSGGGGSDIQLTQSPSFLSASVGDRVTITCRASQSIGTNIHWYQQKPGKAPKLLIKYASESISGVPSRFSGSGSGTEFTLTISSLQPEDFATYYCQQNNNWPTTFGAGTKLEIKRGGGGSGGGGSGGGGSEVQLVESGGGLVQPGGSLRLSCAASGFSLTNYGVHWVRQAPGKGLEWLGVIWSGGNTDYNTPFTSRFTISRDNSKNTLYLQMNSLRAEDTAVYYCARALTYYDYEFAYWGQGTTVTVSSGGGGSDIQLTQSPSFLSASVGDRVTITCRASQSIGTNIHWYQQKPGKAPKLLIKYASESISGVPSRFSGSGSGTEFTLTISSLQPEDFATYYCQQNNNWPTTFGAGTKLEIKRAAADKTHTCPPCPAPPVAGPSVFLFPPKPKDTLMISRTPEVTCVVVDVSHEDPEVKFNWYVDGVEVHNAKTKPREEQYNSTYRVVSVLTVLHQDWLNGKEYKCKVSNKGLPSSIEKTISKAKGQPREPQVCTLPPSRDELTKNQVSLSCAVKGFYPSDIAVEWESNGQPENNYKTTPPVLDSDGSFFLVSKLTVDKSRWQQGNVFSCSVMHEALHNHYTQKSLSLSPGK
heavy: QVQLVQSGAEVKKPGSSVKVSCKASGGTFSGYTMNWVRQAPGQGLEWMGLINPYKGVSTYNGKFKDRVTITADKSTSTAYMELSSLRSEDTAVYYCARSGYYGDSDWYFDVWGQGTLVTVSSASTKGPSVFPLAPSSKSTSGGTAALGCLVKDYFPEPVTVSWNSGALTSGVHTFPAVLQSSGLYSLSSVVTVPSSSLGTQTYICNVNHKPSNTKVDKKVEPKSCDKTHTCPPCPAPPVAGPSVFLFPPKPKDTLMISRTPEVTCVVVDVSHEDPEVKFNWYVDGVEVHNAKTKPREEQYNSTYRVVSVLTVLHQDWLNGKEYKCKVSNKGLPSSIEKTISKAKGQPREPQVYTLPPCRDELTKNQVSLWCLVKGFYPSDIAVEWESNGQPENNYKTTPPVLDSDGSFFLYSKLTVDKSRWQQGNVFSCSVMHEALHNHYTQKSLSLSPGK
light: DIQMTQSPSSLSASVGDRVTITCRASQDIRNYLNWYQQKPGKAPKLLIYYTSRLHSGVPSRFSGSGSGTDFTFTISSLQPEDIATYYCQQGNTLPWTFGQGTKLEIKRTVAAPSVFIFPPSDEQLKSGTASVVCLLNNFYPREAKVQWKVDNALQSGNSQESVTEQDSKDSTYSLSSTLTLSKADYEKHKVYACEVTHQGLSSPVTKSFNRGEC
Q: For B2, which EC50 (EGFR [1]) is on record?
A: The EC50 was 3.6 nM.

Q: What about the EC50 (EGFR [2]) of the same binder?
A: The EC50 was 0.8 nM.

Q: And the EC50 (EGFR [3])?
A: The EC50 was 2.6 nM.

Q: And the EC50 (EGFR [4])?
A: The EC50 was 0.2 nM.

Q: What about the EC50 (EGFR [5]) of the same binder?
A: Its EC50 is 0.5 nM.

B3: scDb/scFv-Fc (1-1)+2, trivalent bispecific anti-EGFRxanti-CD3 (bispecific antibody)
chain 1: B2 chain
chain 2: B1 chain 2
notes: also called scDbhu225xhu225-Fc(hole)Δab + scFvhuU3-Fc(knob)Δab
Q: B3 was tested. Which EC50 (EGFR [1]) did it give?
A: The EC50 was 8.9 nM.

Q: And the EC50 (EGFR [2])?
A: Its EC50 is 2.8 nM.

Q: What about the EC50 (EGFR [3]) of the same binder?
A: Its EC50 is 4 nM.

Q: What about the EC50 (EGFR [4]) of the same binder?
A: Its EC50 is 0.4 nM.

Q: What about the EC50 (EGFR [5]) of the same binder?
A: Its EC50 is 0.8 nM.

B4: scDb/Fab-Fc (1-1)+2, trivalent bispecific anti-CEAxanti-CD3 (bispecific antibody)
chain: B1 chain 1
heavy: B2 heavy
light: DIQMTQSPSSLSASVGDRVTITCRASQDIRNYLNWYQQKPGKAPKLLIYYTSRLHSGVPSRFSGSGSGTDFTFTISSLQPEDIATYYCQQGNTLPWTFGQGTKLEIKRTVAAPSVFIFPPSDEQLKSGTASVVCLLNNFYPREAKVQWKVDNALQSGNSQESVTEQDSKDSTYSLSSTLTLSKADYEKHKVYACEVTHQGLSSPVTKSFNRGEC
notes: also called scDbCEAxCEA-Fc(hole)Δab + FdhuU3-Fc(knob)Δab + VLhuU3-CLK
Q: For B4, which EC50 (CEA) is on record?
A: The EC50 was 8.5 nM.

Q: And the EC50 (CD3)?
A: Its EC50 is 0.8 nM.
